The values that follow come from patent US20180009892A1 (EUREKA THERAPEUTICS, published 2018).

Residue numbers refer to the chain shown, from its start.

In one assay the target is T1, human ROR2-ECD (human, UniProt Q01974 34-403).
T1 construct: extracellular domain; also called hROR2
The assay can be described thus: protein ELISA, phage.

The target in assay [1] is T2, human ROR1 extracellular domain (ECD) protein (human, UniProt Q01973 30-406).
T2 construct: also called hROR1-ECD; human ROR1-ECD
T2 sequence (Q01973 30-406 limits assumed): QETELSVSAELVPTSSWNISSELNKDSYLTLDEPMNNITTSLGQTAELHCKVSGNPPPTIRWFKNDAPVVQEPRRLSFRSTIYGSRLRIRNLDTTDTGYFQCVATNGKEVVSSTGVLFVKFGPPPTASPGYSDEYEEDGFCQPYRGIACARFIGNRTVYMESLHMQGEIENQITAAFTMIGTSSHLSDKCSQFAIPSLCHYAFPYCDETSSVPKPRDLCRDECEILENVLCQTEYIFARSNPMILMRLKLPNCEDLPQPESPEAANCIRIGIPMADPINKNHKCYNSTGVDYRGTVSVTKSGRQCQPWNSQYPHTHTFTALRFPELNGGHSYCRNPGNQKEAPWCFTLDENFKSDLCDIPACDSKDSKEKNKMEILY
As to the kind of experiment: competitive phage ELISA: soluble ROR1 against ROR1-coated plate. As for the experimental part: Purified phage antibodies were first diluted serially in PBST buffer, and tested for binding to a ROR1-coated plate. The dilution that gave 50-80% saturating signal was used in the solution binding assay in which phage were first incubated with increasing concentration of ROR1 for one to two hours, and then transferred to a ROR1-coated plate for 10-15 minutes to capture the unbound phage.

Assay [2] has as its target T3, ROR1 extracellular domain Fc-fusion, dimer (human, UniProt Q01973 30-406).
T3 construct: also called ROR1 dimer; hROR1 dimeric ECD-Fc fusion protein; not shown: Fc part
As to the kind of experiment: SPR, immobilised ROR1 dimer, antibody injected, 1:1 model; apparent affinity. As for the experimental part: (§1) The binding affinities of ROR1 extracellular domain dimer and monomer for anti-ROR1 antibodies were determined by surface plasmon resonance (SPR). ROR1 extracellular domain Fc-fusion, “dimer,” and ROR1 extracellular domain Fc fusion:Fc heterodimer, “monomer,” are the dimer and monomeric forms of ROR1 used for affinity analysis, respectively. Briefly, ROR1 dimer and monomer were directly immobilized to a CM4 chip using an amine coupling kit and 100 mM ethylenediamine in 100 mM Sodium Borate buffer, pH 8.0 as the blocking reagent. Approximately 100-150 RU of ROR1 dimer and monomer were immobilized on separate flow cells and an un-derivatized flow cell was used as a reference control. […] Dissociation was followed for 180 seconds. The association constant, dissociation constant, and affinity of each anti-ROR1 antibody was calculated using the Biacore T200 Evaluation Software 1:1 binding model.
(§2) Sensorgrams were normalized to 100 RU using the “binding stability point” at the end of the association phase but before the dissociation phase.

Assay [3] concerns the target T4, ROR1 extracellular domain Fc fusion:Fc heterodimer, monomer (human).
T4 construct: Heterodimer of one ROR1 ECD-Fc chain and one Fc chain; also called ROR1 monomer; hROR1 monomeric ECD-Fc fusion protein; not shown: Fc part; Fc alone
The assay can be described thus: SPR, immobilised ROR1 monomer, antibody injected, 1:1 model. Here is the method:
as §1, §2

The target of assay [4] is T3, ROR1 extracellular domain Fc-fusion, …. The assay can be described thus: SPR, immobilised ROR1 dimer, antibody injected, 1:1 model. Here is the method: as §1, §2

T1 sequence (Q01974 34-403): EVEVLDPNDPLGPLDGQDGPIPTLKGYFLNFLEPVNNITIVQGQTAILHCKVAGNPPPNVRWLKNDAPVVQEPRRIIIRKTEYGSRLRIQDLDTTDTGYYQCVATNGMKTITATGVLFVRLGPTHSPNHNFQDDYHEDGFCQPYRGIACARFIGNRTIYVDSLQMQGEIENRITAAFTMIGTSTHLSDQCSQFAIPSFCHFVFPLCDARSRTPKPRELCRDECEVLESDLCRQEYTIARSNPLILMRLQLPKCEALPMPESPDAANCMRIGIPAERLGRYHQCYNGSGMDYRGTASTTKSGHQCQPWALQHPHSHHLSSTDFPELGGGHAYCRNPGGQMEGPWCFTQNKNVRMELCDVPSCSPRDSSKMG
T3 sequence (Q01973 30-406): as the sequence (Q01973 30-406 limits assumed) above
T4 sequence (Q01973 30-406, one chain of several): as the sequence (Q01973 30-406 limits assumed) above

B1: P601-50 (scFv, V domains shown)
VH: QVQLQQSGAEVKKPGASVKVSCKASGYTFSRYYIHWVRRAPGQGLEWMGLINPGGGSTNYAQKFQGRVTMTRDTSTNTVYLELSSLRSDDTAVYYCARDYGTIDARRFDFWGQGTLVTVSS
VL: QSALTQPPSASGTPGQRVTISCPGSSSNIGSNYVYWYQQLPGTAPKLLIYRNNQRPSGVPDRFSGSKSGTSATLGITGLQTGDEADYYCGTWDSSLSAYVFGTGTKVTVL
In the case of B1, the binding result with human ROR2-ECD is listed as “no binding”. In assay [1], this molecule gave an IC50 of 24.1 nM.

B2: P601-9 (scFv, V domains shown)
VH: QLQLQESGPGVVKPSGTLSLTCTVSGGSISRSDGYWGWVRQPPGKGLEWIGSIYDTGTTYYSPSLKSRLIISVDTSKNQFSLTLNSVTAADTAVYYCASMGGLRSSSSDAFHTWGPGTMVTVSS
VL: QSVLTQPPSVSVAPGETARITCGGTNIGSESVHWYQQRPGQAPVLVVYDDTDRPSGIPERFSGSNSGNTATLTISRVEAGDGADYYCQVWDSVSDRYVFGTGTKVTVL
On to B2, for which the binding result with human ROR2-ECD is “no binding”. The same molecule had an IC50 in assay [1] of 14.6 nM.

B3: Antibody 601-13 (antibody, V domains shown)
VH: EVQLVQSGAEVKKPGSSVKVSCKASGGTFSTFAINWVRQAPGQGLEWMGGVIPVSGTEDYSQKFQGRLSLTADESTGTAYMELSSLRSDDTAVYYCARDRSGRDWDYFDYWGQGTLVTVSS
VL: DIVMTQSPSSLSASVGDRVTITCQASQDISNYLNWYQQKPGKAPKLLIYDASNLETGVPSRFSGSGSGTDFIFTISSLQPEDIATYYCQQFDNLPYTFGQGTKVEIKR
As for B3, in assay [2], the Kd came to 0.5 nM. Besides, in assay [3], the Kd came to 0.8 nM, the koff is 0.0014 s⁻¹ and the kon was 1.8e+06 M⁻¹ s⁻¹. In assay [4], the dissociation rate constant (koff) came to 0.00087 s⁻¹ and the kon was determined as 1.6e+06 M⁻¹ s⁻¹.

B4: P601-108 (scFv, V domains shown)
VH: QLQLQESGPGLVKPSETLSLTCTVSGGSISSNSYYWGWIRQPPGKGLEWIGSIYYSGSTYYNPSLKSRVTISVDTSKNQFSLKLGSVTAADTAVYYCARHDGTDAFDIWGQGTTVTVSS
VL: QSVVTQPPSVSAAPGQKVTISCSGSSSNIGKNYVSWYQQFPGTAPKLLIYDNNERPSGIPARFSGSKSGTSATLGITGLQTGDEADYYCATFDTSLWAAVFGGGTKLTVL
Take B4: the binding result in the assay with human ROR2-ECD is listed as “no binding”. In assay [1], the IC50 turned out to be 0.76 nM.

B5: P601-70 (scFv, V domains shown)
VH: EVQLVQSGAELKKPGSSVRVSCKTSGGSFKTHGISWVRQAPGQGLEWMGWINPNSGGALYVDNFQGRATMTRDTSINTAYMELRSLSSDDTAVYYCARGMADLIDVFDIWGQGTMVTVSS
VL: TQPALTQPASVSGSPGQSITISCTGTSSDFGDYDYVSWYQQHPGKAPKLMIYDVSDRPSGVSNRFSGSKSGNTASLTISGLQAEDEADYFCSSFTTSSTLVFGGGTKLTVL
B5: the binding result with human ROR2-ECD is reported as “no binding”. The IC50 in assay [1] was 74 nM.

B6: P601-128 (scFv, V domains shown)
VH: EVQLVQSGAEVKKPGESLKISCKGSGYSFSRYWIGWVRQMPGKGLEWMGIIYPRDSDTRYSPSFQGQVTISADKSISTAYLQWSSLKASDTAMYYCATPVVTAGAFDIWGQGTMVTVSS
VL: DIQMTQSPSSVSASVGDRVTITCRASQGISSWLAWYQQKPGKAPKLLIYAASSLQSGVPSRFSGSGSGTDFTLTISSLQPEDFATYYCQQANSFPLTFGGGTKVEIK
B6: in the assay with human ROR2-ECD, the binding result is “no binding”. This molecule displayed an IC50 in assay [1] of 263 nM.

B7: Antibody 601-100 (antibody, V domains shown)
VH: EVQLVQSGGGVVQPGGPLRLSCAASGFTFSSYSMNWVRQAPGKGLEWVSSISSSSSYIYYADSVKGRFTISRDNAKNSLYLQMNSLRAEDTAVYYCARGLGGWTHDAFDIWGQGTMVTVSS
VL: QSALTQPASVSGSPGQSITISCTGTSRDVGGYDYVSWYQQYPGNAPKLMIYDVSRRPSGVSHRFSASKSGNTASLTISGLQTEDEADYYCSSYTSSSTRVFGGGTKVTVL
For the molecule B7, in assay [2], the Kd stood at 3.9 nM. In assay [3], the Kd is 8.2 nM, the dissociation rate constant (koff) was 0.0028 s⁻¹ and the kon worked out at 350000 M⁻¹ s⁻¹. In assay [4], the koff came out at 0.0017 s⁻¹ and the kon was found to be 440000 M⁻¹ s⁻¹.

B8: P601-102 (scFv, V domains shown)
VH: B7 VH with E1Q, V2M, G10D, V11L, P17S, M116T
VL: QSALTQPASVSGSPGQSITISCTGTSSDVGGYNYVSWYQQHPGKAPKLMIYDVSKRPSGVSNRFSGSKSGNTASLTISGLQAEDEADYYCSSYTSSSTSVVFGGGTKLTVL
Consider B8, for which the binding result with human ROR2-ECD was “no binding”. Moreover, the IC50 in assay [1] was found to be 10.2 nM.

B9: Antibody 601-103 (antibody, V domains shown)
VH: B7 VH with G10D, V11L, P17S, M116T
VL: QSVLTQPASVSGSPGQSITISCTGTTSDVGGYNYVSWYQQHPGKAPKLMIYDVSKRPSGVSNRFSGSKSGNTASLTISGLQAEDEADYYCSSYTSSSTDVFGTGTKLTVL
For B9, in assay [2], the Kd turned out to be 20.7 nM. In assay [3], this molecule yielded a Kd of 40.2 nM, a koff of 0.005 s⁻¹ and a kon of 120000 M⁻¹ s⁻¹. In assay [4], this molecule had a koff of 0.0035 s⁻¹ and a kon of 170000 M⁻¹ s⁻¹.

B10: P601-119 (scFv, V domains shown)
VH: B7 VH with E1Q, V11L, Q13K, P17S, S30G, S31T, M116T
VL: QSALTQPASVSASPGQSITISCTGTSSDVGGYNYVTWYQQHPGKAPKLMIYDVSKRPSGVLDRFSGSKSGNTASLTISGLQAEDEADYFCSSYTSSSTLVFGGGTKLTVLG
As to B10, the binding result with human ROR2-ECD was “no binding”. Also, in assay [1], the IC50 came to 17.7 nM.

B11: P601-100 (scFv, V domains shown)
VH: B7 VH
VL: B7 VL
With B11, in the assay with human ROR2-ECD, the binding result is reported as “no binding”. Also, the IC50 in assay [1] was 5.8 nM.

B12: P601-69 (scFv, V domains shown)
VH: QVQLVQSGAEVKKPGESLKISCKGSGYSFTSYWIGWVRQMPGKGLEWMGIIYPGDSDTRYSPSFQGQVTISADKSISTAYLQWSSLKASDTAMYYCARLSSSSYDAFDIWGQGTMVTVSS
VL: B8 VL with K55N, T98I, S99P, V100W
In the case of B12, the binding result in the assay with human ROR2-ECD is “no binding”. In assay [1], this molecule yielded an IC50 of 9.81 nM.

B13: P601-4 (scFv, V domains shown)
VH: EVQLVQSGPGLVKPSGTLSLTCAVSGGSISSSNWWSWVRQPPGKGLEWIGEIYHSGSTNYNPSLKSRVTISVDKSKNQFSLKLGSVTAADTATYYCARDLWLGEWDLWGQGTLVTVSS
VL: QSVLTQPPSASGAPGQRVTISCSGGISNVGTNGVNWYQHLPGTAPKLLVDAMNQRPSGVPDRFSGSRSGTSGSLAITGLRSEDEADYYCATWDDSLSGVLFGGGTKLTVLG
As for B13, the binding result with human ROR2-ECD was “no binding”. In addition, the IC50 in assay [1] was determined as 0.93 nM.
